Results reported in article PMC7202955 (Current biology : CB, 2020).

Target: the molecule itself
Experiment: cross-linking

B1: β3 TMD-tail (construct of the cross-linking experiment, Figure S5) (domain or fragment, UniProt P05106 711-788, looked up)
chain: PECPKGPDILVVLLSVMGAILLIGLAALLIWKLLITIHDRKEFAKFEEERARAKWDTANNPLYKEATSTFTNITYRGT
  stoichiometry N: 2
